According to patent publication US20140271699A1 (US Dept. of Health and Human Services, published 2014):

Target: RSV F glycoprotein as expressed by RSV (on RSV-infected HEp-2 cells / on virus) (RSV (strain  for this assay), UniProt P03420 26-109; P03420 137-574)
Test: cell-based or functional assay

Sequence of RSV F glycoprotein as expressed by RSV (on RSV-infected HEp-2 cells / on virus) (P03420 26-109, chain 1 of 2): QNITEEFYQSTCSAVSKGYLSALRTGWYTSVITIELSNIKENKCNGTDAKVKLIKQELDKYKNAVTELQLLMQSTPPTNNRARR
Sequence of RSV F glycoprotein as expressed by RSV (on RSV-infected HEp-2 cells / on virus) (P03420 137-574, chain 2 of 2): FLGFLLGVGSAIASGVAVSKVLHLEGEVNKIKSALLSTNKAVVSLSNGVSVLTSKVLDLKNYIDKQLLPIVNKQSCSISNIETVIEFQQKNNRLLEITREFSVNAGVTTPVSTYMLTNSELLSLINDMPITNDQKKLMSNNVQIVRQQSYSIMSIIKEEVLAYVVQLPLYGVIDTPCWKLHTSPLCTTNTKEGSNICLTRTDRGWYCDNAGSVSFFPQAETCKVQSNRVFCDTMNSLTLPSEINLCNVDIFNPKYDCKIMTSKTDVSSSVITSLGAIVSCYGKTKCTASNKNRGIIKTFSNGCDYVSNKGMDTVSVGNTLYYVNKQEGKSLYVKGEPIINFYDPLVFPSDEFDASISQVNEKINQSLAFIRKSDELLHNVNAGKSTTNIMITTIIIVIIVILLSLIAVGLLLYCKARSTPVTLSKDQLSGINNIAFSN

B1: AM22 antibody (antibody, V domains shown)
VH: QVQLVQSGAEVKKPGATVKVSCKISGHTLIKLSIHWVRQAPGKGLEWMGGYEGEVDEIFYAQKFQHRLTVIADTATDTVYMELGRLTSDDTAVYFCGTLGVTVTEAGLGIDDYWGQGTLVTVSS
VL: EIVLTQSPGTLSLSPGERATLSCRASQIVSRNHLAWYQQKPGQAPRLLIFGASSRATGIPVRFSGSGSGTDFTLTINGLAPEDFAVYYCLSSDSSIFTFGPGTKVDFKR
RSV neutralization (flow cytometry, RSV-GFP on HEp-2 cells), potency relative to palivizumab: ~50 fold
